The results in this text go back to patent publication US20240360203A1.

In experiment [1] the target is HIV-1 Env peptide, biotinylated (negative control) (HIV-1). Description: DELFIA on captured biotin-peptide. The arrangement: unit not given beside the values.
The target of experiment [2] is SARS-CoV-1 spike protein (SARS-CoV-1) (UniProt P59594). Description: cell-based or functional assay.
For experiment [3], the target named is WIV1 spike protein (bat SARS-like coronavirus WIV1). Description: cell-based or functional assay.

The substance “isotype control (palivizumab variable regions expressed as human IgG1 with LS mutation in the Fc region) (antibody)” showed an AUC in experiment [1] of 41500. For Bebtelovimab (antibody), the pseudovirus neutralization Emax (% neutralization) came out at 8 in experiment [2] and 6.99 in experiment [3].
